Target: Recombinant Cyclin H (CCNH) protein with a C-HIS tag (human) (UniProt P51946)
Test: SPR; Biacore T200, 25 °C, 30 μL/min, HBS-EP running buffer; CCNH amine-coupled on a CM5 chip (1200 RU); candidalysin in 1:1 serial dilution, multicycle, association 120 s, dissociation 150 s

candidalysin (Ece1-III), synthetic peptide, sequence (Q07730 62-92 limits assumed): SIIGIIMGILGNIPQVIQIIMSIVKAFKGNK
Recombinant Cyclin H (CCNH) protein with a C-HIS tag (human), sequence (P51946 whole entry): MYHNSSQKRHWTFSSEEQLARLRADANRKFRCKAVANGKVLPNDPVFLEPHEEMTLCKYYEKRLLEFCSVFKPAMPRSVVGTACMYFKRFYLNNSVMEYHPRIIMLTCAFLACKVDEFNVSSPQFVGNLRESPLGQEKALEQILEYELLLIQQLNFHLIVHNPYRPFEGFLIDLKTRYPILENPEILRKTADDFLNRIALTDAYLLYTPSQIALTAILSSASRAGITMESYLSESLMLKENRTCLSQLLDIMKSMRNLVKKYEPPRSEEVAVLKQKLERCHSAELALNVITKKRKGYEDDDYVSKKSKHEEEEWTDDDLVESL

candidalysin (Ece1-III), synthetic peptide
Kd: 17.2 nM
koff: 0.00171 s⁻¹
kon: 99200 M⁻¹ s⁻¹
